Measured values reported in patent EP4803149A2 (Lyvgen Biopharma Holdings Limited, dated 2026).
Substitutions are numbered along the chain they refer to.

B1: Ly1966 (multi-specific antibody)
chain 1: QVQLQQSGAELVRPGSSVKISCKASGYAFSSYWMNWVKQRPGQGLEWIGQIWPGDGDTNYNGKFKGKATLTADESSSTAYMQLSSLASEDSAVYFCARRETTTVGRYYYAMDYWGQGTTVTVSSASTKGPSVFPLAPSSKSTSGGTAALGCLVKDYFPEPVTVSWNSGALTSGVHTFPAVLQSSGLYSLSSVVTVPSSSLGTQTYICNVNHKPSNTKVDKKVEPKSCGGGGSGGGGSGGGGSGGGGSEVQLVESGGGLVQPGGSLRLSCAASGFTFSTYAMNWVRQAPGKGLEWVGRIRSKYNNYATYYADSVKGRFTISRDDSKNSLYLQMNSLKTEDTAVYYCVRHGNFGNSYVSWFAYWGQGTLVTVSSGGGGSDKTHTCPPCPAPEAAGPSVFLFPPKPKDTLMISRTPEVTCVVVDVSHEDPEVKFNWYVDGVEVHNAKTKPREEQYNSTYRVVSVLTVLHQDWLNGKEYKCKVSNKALPAPIEKTISKAKGQPREPQVYTLPPSREEMTKNQVSLWCLVKGFYPSDIAVEWESNGQPENNYKTTPPVLDSDGSFFLYSKLTVDKSRWQQGNVFSCSVMHEALHNHYTQKSLSLSPGGGGGSGGGGSGGGGSGGGGSQVQLVQSGAEVKKPGASVKVSCKASGYTFAGFEMHWVRQAPGQGLEWMGAIDPKTGGTDYNQKFKDRVTMTRDTSISTAYMELSRLRSDDTAVYYCARDLGYFDVWGQGTLVTVSS
chain 2: QVQLQQSGAELVRPGSSVKISCKASGYAFSSYWMNWVKQRPGQGLEWIGQIWPGDGDTNYNGKFKGKATLTADESSSTAYMQLSSLASEDSAVYFCARRETTTVGRYYYAMDYWGQGTTVTVSSASTKGPSVFPLAPSSKSTSGGTAALGCLVKDYFPEPVTVSWNSGALTSGVHTFPAVLQSSGLYSLSSVVTVPSSSLGTQTYICNVNHKPSNTKVDKKVEPKSCGGGGSGGGGSGGGGSGGGGSQAVVTQEPSLTVSPGGTVTLTCRSSTGAVTTSNYANWVQQKPGQAPRGLIGGTNKRAPWTPARFSGSLLGGKAALTITGAQAEDEADYYCALWYSNLWVFGGGTKLTVLGGGGSDKTHTCPPCPAPEAAGPSVFLFPPKPKDTLMISRTPEVTCVVVDVSHEDPEVKFNWYVDGVEVHNAKTKPREEQYNSTYRVVSVLTVLHQDWLNGKEYKCKVSNKALPAPIEKTISKAKGQPREPQVYTLPPSREEMTKNQVSLSCAVKGFYPSDIAVEWESNGQPENNYKTTPPVLDSDGSFFLVSKLTVDKSRWQQGNVFSCSVMHEALHNRFTQKSLSLSPGGGGGSGGGGSGGGGSGGGGSDIQMTQSPSSLSASVGDRVTITCRASQDIRSNLNWYQQKPGGAVKLLIYYTSRLHSGVPSRFSGSGSGTDYTLTISSLQPEDFATYFCQQSEKLPRTFGGGTKVEIR
chain 3: not shown
notes: CD19/CD3/CD137
B2: Ly1967 (multi-specific antibody)
chain 1: B1 chain 1
chain 2: B1 chain 2 with R575H, F576Y
chain 3: not shown
notes: CD19/CD3/CD137 multi-specific

Target: CD3 (human)
Assay: ELISA or FCM (as in Example 2)

Row | Binder | EC50 [µg/mL]
1 | B1 | 0.348
2 | B2 | 1.56
